The chains are these.
B1: S. cerevisiae Abp1 (full length; SH3 domain 535-592 mutated) / Hua2 (parent complex)
chain 1: MALEPIDYTTHSREIDAEYLKIVRGSDPDTTWLIISPNAKKEYEPESTGSSFHDFLQLFDETKVQYGLARVSPPGSDVEKIIIIGWCPDSAPLKTRASFAANFAAVANNLFKGYHVQVTARDEDDLDENELLMKISNAAGARYSIQTSSKQQGKASTPPVKKSFTPSKSPAPVSKKEPVKTPSPAPAAKISSRVNDNNDDDDWNEPELKERDFDQAPLKPNQSSYKPIGKIDLQKVIAEEKAKEDPRLVQKPTAAGSKIDPSSDIANLKNESKLKRDSEFNSFLGTTKPPSMTESSLKNDDDKVIKGFRNEKSPAQLWAERKAKQNSGNAETKAEAPKPEVPEDEPEGEPDVKDLKSKFEGLAASEKEEEEMENKFAPPPKKSEPTIISPKPFSKPQEPVKAEEAEQPKTDYKKIGNPLPGMHIEADNEEEPEENDDDWDDDEDEAAQPPLPSRNVASGAPVQKEEPEQEEIAPSLPSRNSIPAPKQEEAPEQAPEEEIEEEAEEAAPQLPSRSSAAPPPPPRRATPEKKPKENPWATAEYDYDAAEDNELTFVENDKIINIEFVDDDWWLGELEKDGSKGLFPSNYVSLGN
chain 2: MQQTKFGKMYLDHDSVVEYSEDEIVEADRITLGYKKRLSMIENQMRHLLEDFSLDVQQIEPILADLQKYYDAFLQLLQKRNKSLQCKRSTHQPVPSPMNSQTSTNAKVNLSGKLMKFQLNSVQKFDEENILRILQNKIEFEHYFQIDKGKKQKVLLLAVYQCLNGPTRLHKVLNIEGIIHNNSIRTILGKQVSSSKWTVFLYDVKLVLLAHRQDVPNLETSKMIVRYGDLFPCALYFKDHTAY

Among the data in publication PMC7954794 (2021) are screen value values, retold here.

The variants in the test derive from B1. Put plainly: DHFR protein-fragment complementation in yeast (Abp1-DHFR F[1,2] x partner-DHFR F[3]), deep mutational scanning, second methotrexate selection vs reference; S. cerevisiae, DHFR-PCA selection in liquid with methotrexate at 30 C, two 72 h selections (the score uses the second); reference = the pre-selection culture.
For the variant chain 1 N586G, the screen value is 2.37 DMS score: mean over two replicates of log2(f_test/f_ref + 0.5)/ln 2, minus the synonymous-codon median (not a log2 ….
Next, chain 1 N586C: 2.04 DMS score: mean over two replicates of log2(f_test/f_ref + 0.5)/ln 2, minus the synonymous-codon median (not a log2 ….
For chain 1 F564K, the screen value is -2.62 DMS score: mean over two replicates of log2(f_test/f_ref + 0.5)/ln 2, minus the synonymous-codon median (not a log2 ….
On to chain 1 F564E, for which the screen value was 0.712 DMS score: mean over two replicates of log2(f_test/f_ref + 0.5)/ln 2, minus the synonymous-codon median (not a log2 ….
Next, chain 1 F564R: -2.96 DMS score: mean over two replicates of log2(f_test/f_ref + 0.5)/ln 2, minus the synonymous-codon median (not a log2 ….
As for chain 1 F564P, the figure is -2.61 DMS score: mean over two replicates of log2(f_test/f_ref + 0.5)/ln 2, minus the synonymous-codon median (not a log2 …; as for chain 1 F564M, 0.421 DMS score: mean over two replicates of log2(f_test/f_ref + 0.5)/ln 2, minus the synonymous-codon median (not a log2 …; as for chain 1 S579N, 0.51 DMS score: mean over two replicates of log2(f_test/f_ref + 0.5)/ln 2, minus the synonymous-codon median (not a log2 ….
Next, chain 1 S579C: -0.407 DMS score: mean over two replicates of log2(f_test/f_ref + 0.5)/ln 2, minus the synonymous-codon median (not a log2 …; chain 1 S579K: -0.28 DMS score: mean over two replicates of log2(f_test/f_ref + 0.5)/ln 2, minus the synonymous-codon median (not a log2 …; chain 1 N556M: -0.751 DMS score: mean over two replicates of log2(f_test/f_ref + 0.5)/ln 2, minus the synonymous-codon median (not a log2 ….
As to chain 1 V554E, the screen value was 0.602 DMS score: mean over two replicates of log2(f_test/f_ref + 0.5)/ln 2, minus the synonymous-codon median (not a log2 ….
As for chain 1 V554N, the figure is 0.128 DMS score: mean over two replicates of log2(f_test/f_ref + 0.5)/ln 2, minus the synonymous-codon median (not a log2 …; as for chain 1 V554G, 0.246 DMS score: mean over two replicates of log2(f_test/f_ref + 0.5)/ln 2, minus the synonymous-codon median (not a log2 …; as for chain 1 V554F, 0.446 DMS score: mean over two replicates of log2(f_test/f_ref + 0.5)/ln 2, minus the synonymous-codon median (not a log2 ….
As for chain 1 V554D, the screen value was 0.269 DMS score: mean over two replicates of log2(f_test/f_ref + 0.5)/ln 2, minus the synonymous-codon median (not a log2 ….
Next, chain 1 V554M: -0.0016 DMS score: mean over two replicates of log2(f_test/f_ref + 0.5)/ln 2, minus the synonymous-codon median (not a log2 …; chain 1 D567A: -2.23 DMS score: mean over two replicates of log2(f_test/f_ref + 0.5)/ln 2, minus the synonymous-codon median (not a log2 …; chain 1 I562L: -0.495 DMS score: mean over two replicates of log2(f_test/f_ref + 0.5)/ln 2, minus the synonymous-codon median (not a log2 ….
Next, chain 1 E555A: 1.03 DMS score: mean over two replicates of log2(f_test/f_ref + 0.5)/ln 2, minus the synonymous-codon median (not a log2 ….
Consider chain 1 E555Y, for which the screen value was -0.189 DMS score: mean over two replicates of log2(f_test/f_ref + 0.5)/ln 2, minus the synonymous-codon median (not a log2 ….
As for chain 1 E555F, the figure is -0.693 DMS score: mean over two replicates of log2(f_test/f_ref + 0.5)/ln 2, minus the synonymous-codon median (not a log2 …; as for chain 1 E555M, 0.105 DMS score: mean over two replicates of log2(f_test/f_ref + 0.5)/ln 2, minus the synonymous-codon median (not a log2 …; as for chain 1 Y543H, -0.676 DMS score: mean over two replicates of log2(f_test/f_ref + 0.5)/ln 2, minus the synonymous-codon median (not a log2 ….
On to chain 1 Y543W, for which the screen value is 0.254 DMS score: mean over two replicates of log2(f_test/f_ref + 0.5)/ln 2, minus the synonymous-codon median (not a log2 ….
As for chain 1 P535D, the figure is 0.473 DMS score: mean over two replicates of log2(f_test/f_ref + 0.5)/ln 2, minus the synonymous-codon median (not a log2 …; as for chain 1 P535S, 0.342 DMS score: mean over two replicates of log2(f_test/f_ref + 0.5)/ln 2, minus the synonymous-codon median (not a log2 ….
Next, chain 1 P535E: 1.04 DMS score: mean over two replicates of log2(f_test/f_ref + 0.5)/ln 2, minus the synonymous-codon median (not a log2 …; chain 1 D568N: -2.05 DMS score: mean over two replicates of log2(f_test/f_ref + 0.5)/ln 2, minus the synonymous-codon median (not a log2 …; chain 1 D568H: -2.63 DMS score: mean over two replicates of log2(f_test/f_ref + 0.5)/ln 2, minus the synonymous-codon median (not a log2 ….
As for chain 1 D568Y, the figure is -2.08 DMS score: mean over two replicates of log2(f_test/f_ref + 0.5)/ln 2, minus the synonymous-codon median (not a log2 …; as for chain 1 D568S, -2.97 DMS score: mean over two replicates of log2(f_test/f_ref + 0.5)/ln 2, minus the synonymous-codon median (not a log2 ….
Consider chain 1 T552K, for which the screen value is -0.621 DMS score: mean over two replicates of log2(f_test/f_ref + 0.5)/ln 2, minus the synonymous-codon median (not a log2 ….
Consider chain 1 K558E, for which the screen value was -0.942 DMS score: mean over two replicates of log2(f_test/f_ref + 0.5)/ln 2, minus the synonymous-codon median (not a log2 ….
As for chain 1 K558Q, the figure is -0.388 DMS score: mean over two replicates of log2(f_test/f_ref + 0.5)/ln 2, minus the synonymous-codon median (not a log2 …; as for chain 1 K558L, 0.204 DMS score: mean over two replicates of log2(f_test/f_ref + 0.5)/ln 2, minus the synonymous-codon median (not a log2 ….
Next, chain 1 K558C: -0.507 DMS score: mean over two replicates of log2(f_test/f_ref + 0.5)/ln 2, minus the synonymous-codon median (not a log2 ….
